We go through 94 variants from the supplement of paper PMC10567573.

First the molecules themselves.
B1: TRIM63 (parent)
chain: QRITQEQEKKLSFIEALIQQYQEQ
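Note: lentivirally expressed fusions sorted by FACS into six bins by GFP to DsRed ratio, PSI derived from sequencing read proportions per bin multiplied by bin number.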

The variants in this data set derive from B1. In words: protein stability index of a GFP-peptide fusion (GPS, HEK-293T) (PSI 1-6); higher = more stable. The note with it: c terminus: a fixed tail appended.
Consider QRFTQEQEKKLSFIEALIQQYQEQ [I3F], for which the protein stability index worked out at 2.61.

In the case of QRATQEQEKKLSFIEALIQQYQEQ [I3A], the protein stability index is 2.37.

On to QRYTQEQEKKLSFIEALIQQYQEQ [I3Y], for which the protein stability index was determined as 2.16.

In the case of QRNTQEQEKKLSFIEALIQQYQEQ [I3N], the protein stability index is 2.48.

Consider QRTTQEQEKKLSFIEALIQQYQEQ [I3T], for which the protein stability index came to 2.39.

As to QRGTQEQEKKLSFIEALIQQYQEQ [I3G], the protein stability index worked out at 2.31.

As to QRSTQEQEKKLSFIEALIQQYQEQ [I3S], the protein stability index amounted to 2.59.

In the case of QRPTQEQEKKLSFIEALIQQYQEQ [I3P], the protein stability index amounted to 2.62.

Turning to QRWTQEQEKKLSFIEALIQQYQEQ [I3W], the protein stability index was 2.44.

Regarding QRLTQEQEKKLSFIEALIQQYQEQ [I3L], the protein stability index stood at 2.5.

With QRHTQEQEKKLSFIEALIQQYQEQ [I3H], the protein stability index came out at 2.54.

QRDTQEQEKKLSFIEALIQQYQEQ [I3D]: the protein stability index turned out to be 2.22.

On to QRETQEQEKKLSFIEALIQQYQEQ [I3E], for which the protein stability index came to 2.45.

Regarding QRQTQEQEKKLSFIEALIQQYQEQ [I3Q], the protein stability index is 2.33.

QRVTQEQEKKLSFIEALIQQYQEQ [I3V]: the protein stability index was found to be 2.56.

Take QRRTQEQEKKLSFIEALIQQYQEQ [I3R]: the protein stability index was 2.76.

Take QRKTQEQEKKLSFIEALIQQYQEQ [I3K]: the protein stability index was 2.37.

For QRMTQEQEKKLSFIEALIQQYQEQ [I3M], the protein stability index stood at 1.83.

With QRCTQEQEKKLSFIEALIQQYQEQ [I3C], the protein stability index worked out at 2.3.

In the case of QRITQEMEKKLSFIEALIQQYQEQ [Q7M], the protein stability index was 2.46.

Turning to QRITQEWEKKLSFIEALIQQYQEQ [Q7W], the protein stability index stood at 3.76.

Turning to QRITQELEKKLSFIEALIQQYQEQ [Q7L], the protein stability index was 3.44.

Turning to QRITQETEKKLSFIEALIQQYQEQ [Q7T], the protein stability index was 3.54.

With QRITQECEKKLSFIEALIQQYQEQ [Q7C], the protein stability index turned out to be 2.83.

On to QRITQEPEKKLSFIEALIQQYQEQ [Q7P], for which the protein stability index came to 2.31.

Take QRITQESEKKLSFIEALIQQYQEQ [Q7S]: the protein stability index turned out to be 2.86.

For QRITQEFEKKLSFIEALIQQYQEQ [Q7F], the protein stability index was found to be 2.02.

For QRITQEVEKKLSFIEALIQQYQEQ [Q7V], the protein stability index is 3.28.

For QRITQEDEKKLSFIEALIQQYQEQ [Q7D], the protein stability index turned out to be 3.02.

In the case of QRITQEEEKKLSFIEALIQQYQEQ [Q7E], the protein stability index was found to be 2.76.

Consider QRITQEIEKKLSFIEALIQQYQEQ [Q7I], for which the protein stability index amounted to 4.42.

For QRITQEYEKKLSFIEALIQQYQEQ [Q7Y], the protein stability index is 2.12.

For the variant QRITQEGEKKLSFIEALIQQYQEQ [Q7G], the protein stability index turned out to be 1.83.

As to QRITQEKEKKLSFIEALIQQYQEQ [Q7K], the protein stability index amounted to 1.96.

On to QRITQEREKKLSFIEALIQQYQEQ [Q7R], for which the protein stability index came to 2.29.

QRITQEAEKKLSFIEALIQQYQEQ [Q7A]: the protein stability index worked out at 2.16.

Regarding QRITQEHEKKLSFIEALIQQYQEQ [Q7H], the protein stability index was 2.32.

Consider QRITQENEKKLSFIEALIQQYQEQ [Q7N], for which the protein stability index stood at 3.1.

With QRITQEQEKKQSFIEALIQQYQEQ [L11Q], the protein stability index was found to be 3.08.

In the case of QRITQEQEKKCSFIEALIQQYQEQ [L11C], the protein stability index was determined as 2.35.

Take QRITQEQEKKISFIEALIQQYQEQ [L11I]: the protein stability index was 2.64.

In the case of QRITQEQEKKRSFIEALIQQYQEQ [L11R], the protein stability index amounted to 2.24.

In the case of QRITQEQEKKWSFIEALIQQYQEQ [L11W], the protein stability index is 2.26.

QRITQEQEKKFSFIEALIQQYQEQ [L11F]: the protein stability index was 1.87.

Take QRITQEQEKKGSFIEALIQQYQEQ [L11G]: the protein stability index turned out to be 2.53.

On to QRITQEQEKKHSFIEALIQQYQEQ [L11H], for which the protein stability index amounted to 2.8.

QRITQEQEKKVSFIEALIQQYQEQ [L11V]: the protein stability index stood at 1.95.

As to QRITQEQEKKYSFIEALIQQYQEQ [L11Y], the protein stability index is 2.79.

As for QRITQEQEKKESFIEALIQQYQEQ [L11E], the protein stability index was 3.98.

QRITQEQEKKTSFIEALIQQYQEQ [L11T]: the protein stability index is 2.54.

For the variant QRITQEQEKKMSFIEALIQQYQEQ [L11M], the protein stability index was 1.82.

With QRITQEQEKKSSFIEALIQQYQEQ [L11S], the protein stability index is 2.63.

On to QRITQEQEKKKSFIEALIQQYQEQ [L11K], for which the protein stability index is 1.56.

As to QRITQEQEKKDSFIEALIQQYQEQ [L11D], the protein stability index came to 3.94.

With QRITQEQEKKPSFIEALIQQYQEQ [L11P], the protein stability index worked out at 2.78.

Regarding QRITQEQEKKASFIEALIQQYQEQ [L11A], the protein stability index came out at 3.13.

Regarding QRITQEQEKKNSFIEALIQQYQEQ [L11N], the protein stability index was determined as 2.79.

As to QRIHQEQEKKLSFIEALIQQYQEQ [T4H], the protein stability index is 1.8.

Regarding QRISQEQEKKLSFIEALIQQYQEQ [T4S], the protein stability index was 2.5.

For QRIKQEQEKKLSFIEALIQQYQEQ [T4K], the protein stability index came to 2.8.

In the case of QRIFQEQEKKLSFIEALIQQYQEQ [T4F], the protein stability index came out at 2.2.

On to QRIDQEQEKKLSFIEALIQQYQEQ [T4D], for which the protein stability index worked out at 3.22.

With QRIWQEQEKKLSFIEALIQQYQEQ [T4W], the protein stability index came to 1.71.

Take QRIRQEQEKKLSFIEALIQQYQEQ [T4R]: the protein stability index was found to be 2.79.

On to QRICQEQEKKLSFIEALIQQYQEQ [T4C], for which the protein stability index turned out to be 2.1.

Regarding QRIVQEQEKKLSFIEALIQQYQEQ [T4V], the protein stability index stood at 2.87.

Regarding QRIEQEQEKKLSFIEALIQQYQEQ [T4E], the protein stability index stood at 3.19.

For QRILQEQEKKLSFIEALIQQYQEQ [T4L], the protein stability index turned out to be 2.63.

As to QRIPQEQEKKLSFIEALIQQYQEQ [T4P], the protein stability index stood at 2.87.

For the variant QRIQQEQEKKLSFIEALIQQYQEQ [T4Q], the protein stability index is 2.89.

As for QRIIQEQEKKLSFIEALIQQYQEQ [T4I], the protein stability index turned out to be 2.55.

Consider QRIMQEQEKKLSFIEALIQQYQEQ [T4M], for which the protein stability index worked out at 2.7.

Take QRIAQEQEKKLSFIEALIQQYQEQ [T4A]: the protein stability index came out at 3.01.

Take QRIYQEQEKKLSFIEALIQQYQEQ [T4Y]: the protein stability index is 1.66.

As to QRINQEQEKKLSFIEALIQQYQEQ [T4N], the protein stability index is 2.59.

Regarding QRIGQEQEKKLSFIEALIQQYQEQ [T4G], the protein stability index came to 2.73.

In the case of QRITQEQTKKLSFIEALIQQYQEQ [E8T], the protein stability index was 2.28.

Take QRITQEQPKKLSFIEALIQQYQEQ [E8P]: the protein stability index was determined as 1.66.

Regarding QRITQEQSKKLSFIEALIQQYQEQ [E8S], the protein stability index was determined as 2.17.

In the case of QRITQEQCKKLSFIEALIQQYQEQ [E8C], the protein stability index came out at 2.09.

Take QRITQEQLKKLSFIEALIQQYQEQ [E8L]: the protein stability index is 1.86.

Consider QRITQEQKKKLSFIEALIQQYQEQ [E8K], for which the protein stability index stood at 2.12.

Take QRITQEQMKKLSFIEALIQQYQEQ [E8M]: the protein stability index worked out at 1.62.

As to QRITQEQIKKLSFIEALIQQYQEQ [E8I], the protein stability index is 1.9.

Regarding QRITQEQRKKLSFIEALIQQYQEQ [E8R], the protein stability index came out at 1.56.

In the case of QRITQEQGKKLSFIEALIQQYQEQ [E8G], the protein stability index stood at 1.87.

For the variant QRITQEQDKKLSFIEALIQQYQEQ [E8D], the protein stability index was found to be 1.95.

QRITQEQQKKLSFIEALIQQYQEQ [E8Q]: the protein stability index was 2.12.

Consider QRITQEQFKKLSFIEALIQQYQEQ [E8F], for which the protein stability index amounted to 2.03.

In the case of QRITQEQAKKLSFIEALIQQYQEQ [E8A], the protein stability index is 2.18.

As for QRITQEQYKKLSFIEALIQQYQEQ [E8Y], the protein stability index amounted to 1.82.

Turning to QRITQEQNKKLSFIEALIQQYQEQ [E8N], the protein stability index was 1.97.

For the variant QRITQEQHKKLSFIEALIQQYQEQ [E8H], the protein stability index was 1.75.

As for QRITQEQEKKLIFIEALIQQYQEQ [S12I], the protein stability index came out at 2.12.
